This note sets out measurements from paper PMC10786891, “Massively parallel profiling of RNA-targeting CRISPR-Cas13d”.

Where a chain is given by its changes, count along the chain named. Names and notes keep the numbering of the source.

Data set [1] deals with dRfxCas13d (Ruminococcus flavefaciens). Description: BLI. The settings on record: 6 mM Mg2+; BLI: 40 mM Tris-HCl pH 7.5, 150 mM NaCl, 6 mM MgCl2, 1 mM DTT, 0.1% Tween-20, 0.2 mg/ml BSA; RNP 25-100 nM (dRfx 25 nM only); temperature not stated.
In the next data set the target is T1, dEsCas13d (Eubacterium siraeum, UniProt B0MS50 1-954, R295A;H300A;R849A;H854A).
T1 sequence: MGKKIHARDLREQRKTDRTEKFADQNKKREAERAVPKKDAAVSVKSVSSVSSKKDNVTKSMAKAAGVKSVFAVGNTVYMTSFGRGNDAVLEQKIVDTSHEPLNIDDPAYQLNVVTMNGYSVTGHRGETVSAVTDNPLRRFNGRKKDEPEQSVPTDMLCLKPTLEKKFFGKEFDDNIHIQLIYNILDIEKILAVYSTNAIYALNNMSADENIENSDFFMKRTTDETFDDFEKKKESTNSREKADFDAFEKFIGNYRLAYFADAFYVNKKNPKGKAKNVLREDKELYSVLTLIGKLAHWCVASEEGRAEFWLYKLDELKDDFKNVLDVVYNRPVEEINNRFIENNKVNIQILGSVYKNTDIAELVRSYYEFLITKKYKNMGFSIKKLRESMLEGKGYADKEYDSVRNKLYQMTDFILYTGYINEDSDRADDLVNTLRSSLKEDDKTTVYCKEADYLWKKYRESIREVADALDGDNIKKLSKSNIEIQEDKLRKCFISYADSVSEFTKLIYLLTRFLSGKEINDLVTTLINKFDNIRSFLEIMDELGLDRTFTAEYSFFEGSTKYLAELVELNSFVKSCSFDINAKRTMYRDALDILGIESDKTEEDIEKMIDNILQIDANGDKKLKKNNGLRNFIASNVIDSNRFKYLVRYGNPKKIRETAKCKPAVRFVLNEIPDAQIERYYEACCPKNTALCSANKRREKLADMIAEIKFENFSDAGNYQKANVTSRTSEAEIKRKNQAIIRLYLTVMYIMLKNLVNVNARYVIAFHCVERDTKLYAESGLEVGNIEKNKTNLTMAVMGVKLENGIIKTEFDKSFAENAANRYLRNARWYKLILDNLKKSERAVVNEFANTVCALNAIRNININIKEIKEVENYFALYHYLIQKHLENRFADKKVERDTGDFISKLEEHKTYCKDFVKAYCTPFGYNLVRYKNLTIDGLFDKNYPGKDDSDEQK
Description: BLI; 6 mM Mg2+; BLI: 40 mM Tris-HCl pH 7.5, 150 mM NaCl, 6 mM MgCl2, 1 mM DTT, 0.1% Tween-20, 0.2 mg/ml BSA; RNP 25-100 nM (dRfx 25 nM only); temperature not stated. To be noted: protein: recombinant, tags: 6xHis-TwinStrep-SUMO, cleaved, 22 nt crRNA-target match.

Data set [2] concerns the target T2, RfxCas13d (CasRx), nuclease-dead (Ruminococcus flavefaciens, R239A;H244A;R858A;H863A).
T2 chain: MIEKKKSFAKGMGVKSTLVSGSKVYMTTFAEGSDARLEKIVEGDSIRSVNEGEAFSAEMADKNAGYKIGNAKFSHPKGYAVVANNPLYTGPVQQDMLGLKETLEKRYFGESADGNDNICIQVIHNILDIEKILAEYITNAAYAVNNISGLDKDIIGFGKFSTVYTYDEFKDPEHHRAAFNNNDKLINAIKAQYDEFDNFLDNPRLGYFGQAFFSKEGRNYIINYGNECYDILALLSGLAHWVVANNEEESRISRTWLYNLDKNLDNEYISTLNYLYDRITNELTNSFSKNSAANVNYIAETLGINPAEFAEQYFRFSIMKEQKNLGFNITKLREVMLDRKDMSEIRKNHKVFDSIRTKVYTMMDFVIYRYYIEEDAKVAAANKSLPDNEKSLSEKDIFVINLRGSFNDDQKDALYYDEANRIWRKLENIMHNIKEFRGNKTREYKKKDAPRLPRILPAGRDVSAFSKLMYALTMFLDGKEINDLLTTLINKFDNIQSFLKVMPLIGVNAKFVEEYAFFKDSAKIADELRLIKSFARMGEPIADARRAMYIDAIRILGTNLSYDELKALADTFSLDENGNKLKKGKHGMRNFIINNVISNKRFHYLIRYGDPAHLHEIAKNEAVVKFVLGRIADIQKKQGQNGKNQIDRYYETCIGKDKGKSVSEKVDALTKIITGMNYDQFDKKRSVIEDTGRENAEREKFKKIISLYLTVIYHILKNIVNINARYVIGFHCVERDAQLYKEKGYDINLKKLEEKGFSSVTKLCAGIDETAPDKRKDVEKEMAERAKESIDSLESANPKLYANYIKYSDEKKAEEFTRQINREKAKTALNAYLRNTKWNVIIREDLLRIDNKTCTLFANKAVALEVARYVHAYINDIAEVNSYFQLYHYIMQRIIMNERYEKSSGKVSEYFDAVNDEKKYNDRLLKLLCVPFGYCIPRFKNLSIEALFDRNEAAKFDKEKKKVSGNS
Description: BLI; crRNA (strand 1, pre-loaded); Mg2+; 40 mM Tris-HCl pH 7.5, 150 mM NaCl, 6 mM MgCl2, 1 mM DTT, 0.1% Tween-20, 0.2 mg/ml BSA; temperature not stated. The settings on record: tags: His6-TwinStrep-SUMO cleaved; label: 3' biotin on strand 2.

Data set [3] deals with T3, EsCas13d, nuclease-dead (Eubacterium siraeum, UniProt B0MS50, R295A;H300A;R849A;H854A).
T3 sequence: T1 sequence
Described as above. To be noted: tags: His6-TwinStrep-SUMO cleaved; label: 3' biotin on strand 2.

The target of data set [4] is T3, EsCas13d, nuclease-dead. Described as above. To be noted: tags: His6-TwinStrep-SUMO cleaved; label: 3' biotin on strand 2. The source holds these as a separate data set.

As for “AACCCCUACCAACUGGUCGGGGUUUGAAACUGAGCGGAUAACCUCUCUAUGG / CCACAUCUACGAAUUCGUACCAUAGAGAGGUUAUCCGAUCACCGAGAUCGGAAGAGCACA [Rfx crRNA_Target 1 / C4A]”, the Kd in data set [1] was 0.132 nM.

B1: crRNA_Target 1 / MT (5'-GUA PFS) (ssRNA)
RNA 1: CACCCGUGCAAAAAUGCAGGGGUCUAAAACUGAGCGGAUAACCUCUCUAUGG
RNA 2: CCACAUCUACGAAUUCGUACCAUAGAGAGGUUAUCCGCUCACCGAGAUCGGAAGAGCACA
Turning to B1, the Kd with dEsCas13d (label: 3' biotin on target) came out at 3.1 ± 0.018 nM.

B2: crRNA_Target 1 / U9-flanked target (ssRNA)
RNA 1: B1 RNA 1
RNA 2: UUUUUUUUUCCAUAGAGAGGUUAUCCGCUCAUUUUUUUUU
For B2, in the data set with dEsCas13d, the Kd stood at 1.6 ± 0.024 nM.

B3: target 1 C7A (60-mer) (mixed)
RNA 1: AACCCCUACCAACUGGUCGGGGUUUGAAACUGAGCGGAUAACCUCUCUAUGG
RNA 2: B1 RNA 2 with C35A
The molecule B3 had a Kd in data set [2] of around 0.175 nM.

B4: target 1 C22A (60-mer) (mixed)
RNA 1: B3 RNA 1
RNA 2: B1 RNA 2 with C20A
In turn, B4 came in with a Kd in data set [2] of around 0.291 nM.

B5: target 1 3'-GUU (60-mer) (mixed)
RNA 1: B1 RNA 1
RNA 2: B1 RNA 2 with C42G, C43U, G44U
In the data set with EsCas13d, nuclease-dead [3], B5 came in with a Kd of 4.4 nM. In the data set with EsCas13d, nuclease-dead [4], this molecule showed a koff of 0.0011 s⁻¹ and a kon of 250000 M⁻¹ s⁻¹.

B6: target 1 U10G (60-mer) (mixed)
RNA 1: B3 RNA 1
RNA 2: B1 RNA 2 with U32G
For the molecule B6, in data set [2], the Kd was around 0.271 nM.

B7: target 1 C4A (60-mer) (mixed)
RNA 1: B3 RNA 1
RNA 2: B1 RNA 2 with C38A
With B7, in data set [2], the Kd is around 0.132 nM.

B8: target 1 A18G (60-mer) (mixed)
RNA 1: B3 RNA 1
RNA 2: B1 RNA 2 with A24G
B8 yielded a Kd in data set [2] of around 0.886 nM.

B9: target 1 C2G (60-mer) (mixed)
RNA 1: B3 RNA 1
RNA 2: B1 RNA 2 with C40G
Regarding B9, the Kd in data set [2] is around 0.109 nM.

B10: target 1 G15A (60-mer) (mixed)
RNA 1: B3 RNA 1
RNA 2: B1 RNA 2 with G27A
In turn, B10 returned a Kd in data set [2] of around 0.119 nM.

B11: target 1 MT (60-mer) (mixed)
RNA 1: B3 RNA 1
RNA 2: B1 RNA 2
In data set [2], B11 showed a Kd of around 0.104 nM.

B12: target 1 G5U (60-mer) (mixed)
RNA 1: B3 RNA 1
RNA 2: B1 RNA 2 with G37U
For the molecule B12, in data set [2], the Kd is around 1.12 nM.

B13: target 1 A20C (60-mer) (mixed)
RNA 1: B3 RNA 1
RNA 2: B1 RNA 2 with A22C
The molecule B13 displayed a Kd in data set [2] of around 0.556 nM.

B14: crRNA-1 (MT) target (mixed)
RNA 1: CACCCGUGCAAAAUUGCAGGGGUCUAAAACUUUUGGUUGACCACAUCUUGAA
RNA 2: UUGGAAAACUUCAAGAUGUGGUCAACCAAAAUGCACAAGC
B14: the Kd with EsCas13d, nuclease-dead [3] amounted to 4 nM. In the data set with EsCas13d, nuclease-dead [4], this molecule returned a koff of 0.00038 s⁻¹ and a kon of 96000 M⁻¹ s⁻¹.
